{"source": "patent US20170327598A1", "about": "“SINGLE DOMAIN ANTIBODIES DIRECTED AGAINST INTRACELLULAR ANTIGENS” (SINGH MOLECULAR MEDICINE, LLC, priority 2014, published 2017)", "molecules": {"B1": {"name": "anti-TNF-alpha VHH69: second anti-TNF-alpha single domain antibody, SEQ ID NO:46 (protein)", "VHH": "EVQLVESGGGSVLAGGSLRLSCVASGFTSRYNYMAWFRQAPGKEREGVATIGTASGSADYYGSVKDRFTISQDNAKNTVYLQMNSLKPEDTAMYYCAARTYGTISLTPSDYRYWGQGTLVTVSS", "modifications": "Camelid"}, "B2": {"name": "anti-TNF-alpha VHH62: third anti-TNF-alpha single domain antibody, SEQ ID NO:47 (protein)", "VHH": "QVQLVESGGGPVQAGETLRLSCTASGFTFAEADMGWYRQAPGHECELVSTITTEGITSEASSYYADSVRGRFTISRDNAKNMVYLQMNSLKPEDTAVYYCAPDPYAYSTYSDYCSWAQGTQGTLVTVSS", "modifications": "Camelid"}}, "key": {"[1]": {"molecular_target": "T1, endogenous STAT3 (Homo sapiens, UniProt P40763)", "T1 construct": "endogenous STAT3 immunoprecipitated with all sdAbs tested at varying amounts; endogenous in cells", "T1 sequence (P40763 whole entry)": "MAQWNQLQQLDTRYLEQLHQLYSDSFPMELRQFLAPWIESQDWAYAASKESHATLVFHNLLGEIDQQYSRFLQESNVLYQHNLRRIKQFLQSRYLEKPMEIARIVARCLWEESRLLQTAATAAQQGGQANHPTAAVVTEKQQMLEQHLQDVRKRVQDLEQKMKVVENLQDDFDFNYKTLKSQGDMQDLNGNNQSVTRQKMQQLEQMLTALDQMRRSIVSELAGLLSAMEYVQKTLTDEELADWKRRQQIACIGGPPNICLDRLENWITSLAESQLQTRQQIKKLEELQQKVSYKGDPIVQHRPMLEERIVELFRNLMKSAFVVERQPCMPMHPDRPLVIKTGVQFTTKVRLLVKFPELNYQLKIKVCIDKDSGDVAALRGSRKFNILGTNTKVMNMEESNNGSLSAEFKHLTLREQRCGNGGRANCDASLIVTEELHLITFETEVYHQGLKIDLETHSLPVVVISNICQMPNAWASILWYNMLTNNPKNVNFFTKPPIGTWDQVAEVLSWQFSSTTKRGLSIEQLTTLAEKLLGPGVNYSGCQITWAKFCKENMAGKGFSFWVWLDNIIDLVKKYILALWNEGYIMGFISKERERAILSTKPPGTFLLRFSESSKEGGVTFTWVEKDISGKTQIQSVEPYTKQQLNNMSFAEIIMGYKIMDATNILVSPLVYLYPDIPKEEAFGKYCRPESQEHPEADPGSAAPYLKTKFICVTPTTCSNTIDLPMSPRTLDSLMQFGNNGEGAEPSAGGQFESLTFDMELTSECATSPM", "test": "Immunoprecipitation of endogenous STAT3 from MDA-MB-231 lysate, Western blot", "type": "binding", "settings": "FIG. 3", "protocol": "The specificity of STAT3 sdAbs was assayed in human breast cancer cells. […] The cells were then disrupted in freshly prepared ice-cold lysis buffer (20 mM HEPES, pH 7.9, 400 mM NaCl, 0.1% NP-40, 10% glycerol, 1 mM sodium vanadate, 1 mM sodium fluoride, 1 mM dithiothreitol, 1 mM phenylmethylsulfonyl fluoride, 10 μg/mL aprotinin, 10 μg/mL leupeptin) for 45 minutes on ice. Lysates were then centrifuged, the supernatant collected, and protein concentration was determined using a modified Lowry method (Bio Rad, Hercules, Calif.). Total protein (1 mg) was incubated with 1.5 mg of Dynabeads (Invitrogen) with sdAbs against STAT3, a positive control (STAT3, cat#SC-482, Santa Cruz Biotechnology, Dallas, Tex.), or negative control (STAT-1, cat#9172, Cell Signaling, Danvers, Mass.) for 1 hour at 4° C. Beads were then washed. Following the final wash, 60 μl of lysis buffer was added, and the resulting supernatant was subject to Western blot analysis. Briefly, samples were separated on 10% polyacrylamide gels and transferred to a nitrocellulose membrane. The membranes were blocked, then incubated with appropriate primary and secondary antibodies. Anti-STAT3 antibody, used as a positive control, was from Cell Signaling (Cat#4904, Danvers, Mass.). The chemiluminescence reaction was performed using the ECL system from Santa Cruz Biotechnology (Dallas, Tex.)."}, "[2]": {"test_system": "rabbit anti-llama biotinylated antibody or his-probe (H-3) biotin labeled antibody", "test": "ELISA with sdAbs coated, binding of secondary antibodies (Experiments 2 and 3)", "protocol": "Two assays (Experiment 2 and 3) were performed to assess the binding of the secondary antibody to the sdAbs. A similar ELISA method was utilized except the sdAbs were directly coated onto the assay plate at a concentration of 1 μg/mL. Plates were incubated overnight at 2-8° C. After the incubation, plates were washed (3×) and blocked (3% BSA in PBS) for at least one hour at room temperature.\nAfter removal of the blocking buffer and washing (3×), the secondary antibodies, either rabbit anti-llama biotinylated antibody or his-probe (H-3) biotin labeled antibody at was then added at a 1:5,000 dilution to each well and incubated with shaking for at least one hour at room temperature. Only the rabbit anti-llama biotinylated antibody was used in Experiment 2. Both antibodies were run in parallel in Experiment 3.\nAfter the incubation with secondary antibody, the plates were again washed (3×) and HRP at a 1:50,000 dilution was added to each well. Plates were incubated with shaking for at least one hour at room temperature. One last wash (3×) was performed followed by the addition of TMB substrate and plates were incubated at room temperature. For the anti-llama biotinylated antibody stop solution was added to halt the colorimetric reaction at 10 minutes. The his-probe (H-3) biotin labeled antibody was allowed to incubate for 20 minutes prior to stopping. The absorbance at 450 nm was measured as before."}, "[3]": {"test_system": "STAT3 reporter, induction by interleukin-6", "test": "STAT3 reporter GloResponse SIE-luc2P/HEK293 cell assay, IL-6 induction;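 as to all read-outs here: IL-6 added at 40 ng/mL (EC80) for roughly one day after pretreatment, luciferase luminescence read with Bio-Glo reagent, untreated +IL6 wells serve as control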", "type": "cell-based"}, "[4]": {"molecular_target": "T2, active human TNF-α full length protein (Homo sapiens, UniProt P01375)", "T2 construct": "purchased Abcam", "T2 sequence (P01375 77-233 limits assumed)": "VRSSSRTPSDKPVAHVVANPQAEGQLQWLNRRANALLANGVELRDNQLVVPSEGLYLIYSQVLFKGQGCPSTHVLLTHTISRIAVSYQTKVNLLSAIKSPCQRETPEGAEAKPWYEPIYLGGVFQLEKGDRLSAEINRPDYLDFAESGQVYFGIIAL", "test": "TNF ELISA, binding of anti-TNF-α sdAbs to coated TNF-α protein", "settings": "for detection in coated versus non-coated wells: 1 μg/mL sdAb, 0.5 μg/mL coating antigen; for binding to the TNF-α protein, detection: Experiment 1, 1 μg/mL sdAb; for OD450 Values: Non-Coated wells, sdAb 1 μg/mL, non-specific binding", "protocol": "In this Example, the binding of anti-TNF-α sdAbs to active human TNF-α full length protein was assessed using an enzyme linked immunosorbent assay (ELISA) format. Additionally, the feasibility of utilizing a secondary antibody targeted to the his tag portion of the sdAbs was assessed.\nPlates were incubated overnight at 2-8° C. After the incubation, plates were washed (3×) and blocked (3% Bovine Serum Albumin (BSA) in Phosphate Buffered Saline (PBS)) for at least one hour at room temperature.\nAfter removal of the blocking buffer and washing (3×), samples were added to the appropriate wells of the ELISA plates and incubated at room temperature with shaking (150 rpm) for at least one hour. The secondary antibody (rabbit anti-llama biotinylated antibody at either a 1:5,000 or 10,000 dilution) was then added to each well and incubated with shaking for at least one hour at room temperature.\nAfter the incubation with secondary antibody, the plates were again washed (3×) and horseradish peroxidase (HRP) at either a 1:25,000 or 1:50,000 dilution was added to each well. Plates were incubated with shaking for at least one hour at room temperature. A final wash (3×) was performed followed by the addition of TMB (Tetramethylbenzidine) substrate. After a 20 to 25 minute incubation at room temperature, stop solution was added to halt the colorimetric reaction. The absorbance at 450 nm was measured on a VersaMax instrument utilizing SoftMax Pro GxP version 5.4 software from Molecular Devices (Sunnyvale, Calif.).\nThe final experiment performed was to confirm that the results from the ELISA testing were due to binding to the TNF-α protein and not non-specific binding of the sdAb. For this determination, a comparison was made between wells coated with 0.5 μg/mL of coating antigen and non-coated wells. […] This experiment confirms that the detection seen with the previous experiments was due to the specific binding of the VHH to the coating antigen and not due to non-specific binding."}, "[5]": {"test_system": "GloResponse SIE-luc2P/HEK 293 cells", "test": "BCA protein concentration of reporter cells run in parallel", "type": "cell-based"}, "[6]": {"settings": "His-probe (H-3), Experiment 3, stored 1:100 dilution of sdAb"}, "[7]": {"settings": "Rabbit anti-Llama Secondary Antibody, Experiment 2, sdAb coated at 1 μg/mL"}, "[8]": {"settings": "Rabbit anti-Llama Secondary Antibody, Experiment 3, stored 1:100 dilution of sdAb"}, "[9]": {"settings": "24 Hour Treatment Prior to IL6 Induction, high conc.: VHH13 55.8 μg/mL, VHH14 84.3 μg/mL, BB1608 4.16 μM, VHH69 50.5 μg/mL"}, "[10]": {"settings": "24 Hour Treatment Prior to IL6 Induction, low conc.: VHH13, VHH14, VHH69 10 μg/mL, BB1608 2 μM"}, "[11]": {"settings": "48 Hour Treatment Prior to IL6 Induction, high conc.: VHH13 55.8 μg/mL, VHH14 84.3 μg/mL, BB1608 4.16 μM, VHH69 50.5 μg/mL"}, "[12]": {"settings": "48 Hour Treatment Prior to IL6 Induction, low conc.: VHH13, VHH14, VHH69 10 μg/mL, BB1608 2 μM"}}, "note": "Several values for one entry are separate records, joined by “and”; a condition that tells them apart may be missing. Identical values can stand only once."}
{"molecule": "STAT-1: negative control in immunoprecipitation (STAT-1, cat#9172, Cell Signaling) [reference compound]", "values": [{"measurement": "immunoprecipitation of endogenous STAT3", "setting": "[1]", "result": "no band"}]}
{"molecule": "B1", "values": [{"measurement": "OD450 Values", "setting": "[2]; [6]", "result": 0.153}, {"measurement": "OD450 Values", "setting": "[2]; [7]", "result": 0.499}, {"measurement": "OD450 Values", "setting": "[2]; [8]", "result": 0.443}, {"measurement": "Average RLU", "setting": "[3]; [9]", "result": 198596, "unit": "RLU"}, {"measurement": "Average RLU with Media Blank", "setting": "[3]; [9]", "result": 198571, "unit": "RLU"}, {"measurement": "Fold-Induction RLU/RLU of-IL6", "setting": "[3]; [9]", "result": 434}, {"measurement": "Luminescence (RLU), single wells", "setting": "[3]; [9]", "result": "203139 RLU and 194320 RLU and 198330 RLU"}, {"measurement": "Average RLU", "setting": "[3]; [10]", "result": 169752, "unit": "RLU"}, {"measurement": "Average RLU with Media Blank", "setting": "[3]; [10]", "result": 169726, "unit": "RLU"}, {"measurement": "Fold-Induction RLU/RLU of-IL6", "setting": "[3]; [10]", "result": 371}, {"measurement": "Luminescence (RLU), single wells", "setting": "[3]; [10]", "result": "159115 RLU and 184364 RLU and 165776 RLU"}, {"measurement": "Average RLU", "setting": "[3]; [11]", "result": 225726, "unit": "RLU"}, {"measurement": "Average RLU with Media Blank", "setting": "[3]; [11]", "result": 225694, "unit": "RLU"}, {"measurement": "Fold-Induction RLU/RLU of−IL6", "setting": "[3]; [11]", "result": 452}, {"measurement": "Luminescence (RLU), single wells", "setting": "[3]; [11]", "result": "237816 RLU and 220259 RLU and 219104 RLU"}, {"measurement": "Average RLU", "setting": "[3]; [12]", "result": 172988, "unit": "RLU"}, {"measurement": "Average RLU with Media Blank", "setting": "[3]; [12]", "result": 172955, "unit": "RLU"}, {"measurement": "Fold-Induction RLU/RLU of−IL6", "setting": "[3]; [12]", "result": 347}, {"measurement": "Luminescence (RLU), single wells", "setting": "[3]; [12]", "result": "191241 RLU and 171796 RLU and 155927 RLU"}, {"measurement": "effect on IL-6 induction of STAT3 reporter", "setting": "[3]; 24 hours and 48 hours treatment prior to IL-6", "result": "enhancement of the IL-6 induction"}, {"measurement": "detection in coated versus non-coated wells", "setting": "[4]", "result": "detected in coated wells but not in non-coated wells"}, {"measurement": "binding to the TNF-α protein, detection", "setting": "[4]", "result": "little to no detection"}, {"measurement": "OD450 Values", "setting": "[4]", "result": 0.007}, {"measurement": "Protein concentration", "setting": "[5]; [9]", "result": 213}, {"measurement": "Protein concentration", "setting": "[5]; [10]", "result": 237}, {"measurement": "Protein concentration", "setting": "[5]; [12]", "result": 222}]}
{"molecule": "B2", "values": [{"measurement": "OD450 Values", "setting": "[2]; [6]", "result": 0.196}, {"measurement": "OD450 Values", "setting": "[2]; [7]", "result": 1.485}, {"measurement": "OD450 Values", "setting": "[2]; [8]", "result": 2.341}, {"measurement": "detection in coated versus non-coated wells", "setting": "[4]", "result": "not detected in either coated or non-coated wells"}, {"measurement": "binding to the TNF-α protein, detection", "setting": "[4]", "result": "little to no detection"}, {"measurement": "OD values", "setting": "[4]; Experiment 4, 10-fold serial dilutions starting at 1 μg/mL", "result": "< 0.2", "unit": "OD450"}, {"measurement": "OD450 Values", "setting": "[4]", "result": "−0.001"}]}
